Laboratory results published in patent US20060024297A1 (published 2006).
Where “and” joins values, the source holds several entries; their conditions need not be identical. Equal values may be shown once.

Columns and labels:
[1] = target: T1, endogenous human Tie1 of primary human endothelial cells (HDMEC/HDMVEC, HUVEC) and human tissues (human, UniProt P35590 25-1138); assay: cell-based or functional assay
[2] = target: T2, recombinant human Tie1-Fc (Tie1 extracellular domain fused to human Fc) (human, UniProt P35590 25-759); assay: BIAcore, human Tie-1 Fc over IgG coupled to CM5 chip, 1:1 fit
T2 construct: also called Tie-1 Fc Human; not shown: human Fc
T2 sequence: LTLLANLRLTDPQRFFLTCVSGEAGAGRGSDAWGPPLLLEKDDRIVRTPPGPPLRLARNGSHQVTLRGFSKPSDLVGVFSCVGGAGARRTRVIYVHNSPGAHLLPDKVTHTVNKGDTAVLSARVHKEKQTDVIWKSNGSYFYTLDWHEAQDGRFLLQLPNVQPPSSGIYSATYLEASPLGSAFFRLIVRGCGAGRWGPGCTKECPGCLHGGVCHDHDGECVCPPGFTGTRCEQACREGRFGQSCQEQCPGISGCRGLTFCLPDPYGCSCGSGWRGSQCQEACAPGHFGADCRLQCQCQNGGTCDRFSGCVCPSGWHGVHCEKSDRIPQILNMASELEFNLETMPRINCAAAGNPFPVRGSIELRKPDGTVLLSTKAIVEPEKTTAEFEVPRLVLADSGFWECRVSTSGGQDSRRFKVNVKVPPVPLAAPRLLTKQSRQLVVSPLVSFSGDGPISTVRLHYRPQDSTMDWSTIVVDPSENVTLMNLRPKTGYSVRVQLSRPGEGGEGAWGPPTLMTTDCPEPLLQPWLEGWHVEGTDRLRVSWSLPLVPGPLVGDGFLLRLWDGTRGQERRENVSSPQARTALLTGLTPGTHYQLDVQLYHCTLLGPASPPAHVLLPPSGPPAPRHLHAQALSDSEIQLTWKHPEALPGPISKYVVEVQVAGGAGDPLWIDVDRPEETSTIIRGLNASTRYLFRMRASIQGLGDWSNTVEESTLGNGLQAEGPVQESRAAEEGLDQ
Protocol: The IgG were directly coated onto a CM5 chip. […] All flow cells were subsequently deactivated with a 7 minute pulse of 1M ethanolamine hydrochloride pH 8.5. All analysis was performed in HBS buffer. Purified recombinant human Tie-1 Fc was diluted 1/28.7 in HBS to obtain a 400 nM stock solution. Serial dilutions were made to obtain 200 nM, 100 nM, 50 nM and 25 nM Tie-1 Fc stocks. For analysis of the association phase samples were injected at 30 μl/min for 8.3 minutes using kinject program. This was followed by a 40 minutes dissociation phase. Any antigen remaining associated to the surface was stripped from the IgG surface at a flow of 50μl/min with two injections of 10 mM glycine pH 1.5 for 30 secods. All samples were run and analyzed in duplicate
(§1) Sensorgrams were analyzed using the simultaneous ka/kd fitting program with 1:1 model in the BIAEVALUATION™ software 3.1.

[3] = target: T3, recombinant mouse Tie1-Fc (mouse, UniProt Q06806 23-755, limits assumed); assay: BIAcore, mouse Tie-1 Fc over IgG coupled to CM5 chip, 1:1 fit
T3 construct: also called Tie-1 Fc Mouse; not shown: Fc
T3 sequence (looked up): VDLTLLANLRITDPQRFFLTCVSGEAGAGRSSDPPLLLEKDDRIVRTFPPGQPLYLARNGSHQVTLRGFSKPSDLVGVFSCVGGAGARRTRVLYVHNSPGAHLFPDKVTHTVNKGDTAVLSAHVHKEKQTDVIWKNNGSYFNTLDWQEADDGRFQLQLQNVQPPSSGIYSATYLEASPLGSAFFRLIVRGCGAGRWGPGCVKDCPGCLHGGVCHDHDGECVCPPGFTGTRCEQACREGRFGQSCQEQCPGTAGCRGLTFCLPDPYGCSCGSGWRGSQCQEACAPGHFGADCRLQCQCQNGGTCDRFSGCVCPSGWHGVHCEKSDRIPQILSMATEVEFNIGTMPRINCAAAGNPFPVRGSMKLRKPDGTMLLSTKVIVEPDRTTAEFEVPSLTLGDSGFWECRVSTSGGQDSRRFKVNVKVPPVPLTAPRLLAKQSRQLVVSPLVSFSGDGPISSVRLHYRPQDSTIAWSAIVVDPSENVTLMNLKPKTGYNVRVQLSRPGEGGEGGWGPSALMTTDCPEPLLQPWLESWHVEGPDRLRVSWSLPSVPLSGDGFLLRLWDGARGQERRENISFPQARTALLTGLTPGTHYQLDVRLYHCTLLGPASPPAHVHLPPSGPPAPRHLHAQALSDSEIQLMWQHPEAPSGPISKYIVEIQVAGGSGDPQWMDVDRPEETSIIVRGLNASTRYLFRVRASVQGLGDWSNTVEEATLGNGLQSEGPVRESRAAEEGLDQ
Protocol: This was then used to transiently transfect HEK293T cells using established procedures. The IgG was purified from the culture supernatant using protein A column chromatography using established procedures and the subsequent IgG was then tested for binding activity using surface plasmon resonance (BIAcore). […] The IgG were directly coated via onto a CM5 chip. […] All flow cells were subsequently deactivated with a 7 minute pulse of 1M ethanolamine hydrochloride pH8.5. All analysis was performed in HBS buffer. Purified recombinant mouse Tie-1 Fc was diluted 1/6.5 in HBS to obtain a 400 nM stock solution. Serial dilutions were made to obtain 200 nM, 100 nM, 50 nM and 25 nM Tie-1 Fc stocks. For analysis of the association phase samples were injected at 30 μl/min for 8.3 minutes using kinject program. This was followed by a 40 minutes dissociation phase. Any antigen remaining associated to the surface was stripped from the IgG surface at a flow of 50μl/min with two injections of 10 mM glycine pH1.5 for 30 seconds. All samples were run and analyzed in duplicate
as §1

[4] = target: T1, endogenous human Tie1 of primary human …; assay: immunofluorescence, HDMEC
[5] = target: T4, human Tie1, full length, V5-tagged (pcDNA3-Tie1-V5), in transiently transfected COS1 cells (human, UniProt P35590 25-1138); assay: Western blot, Tie1-V5-transfected COS1
T4 construct: it is not expressly tied to the pcDNA3-Tie1-V5 construct; also called Tie1-transfected; transfected Tie1
Protocol: COS1 cells were transfected with pcDNA3-Tie1-V5 (1 μg DNA per 10 cm cell culture plate) using FUGENE 6 (Roche) according to manufacturer's instruction and incubated for 48 h before stimulation. For immunoprecipitation, Tie1 transfected cells and HMVEC cells were lysed in DOC-RIPA lysis buffer (50 mM Tris-HCl pH 8.0, 150 mM NaCl, 1% Triton-X-100, 0.1% SDS, 1% DOC, 10 mM EDTA) supplemented with aprotinin, leupeptin, PMSF and sodium vanadate. Immunoprecipitation was carried out from equal amount of cell lysates by incubating with polyclonal anti-human Tie1 antibodies (R&D), monoclonal anti-V5 antibodies (Invitrogen) or altogether 23 anti-Tie1 antibodies (1μg/ml) for 1 to 2 h followed by incubation with protein G-Sepharose (Amersham Pharmacia Biotech AB) for 1 h. The immunoprecipitates were washed twice with PBS-T and twice with PBS, followed by elution with the Laemmli buffer and separation in 8% SDS-PAGE. The blots were probed with the 23 anti-Tie1 antibodies (5 μg/ml) and subsequently anti-human Fc antibodies conjugated with HRP.
Next, to find out if the anti-Tie1 antibodies recognize Tie1 in living cells, those cells were studied by immunofluorescence staining.

Row | Binder | IC50 of tube formation by HUVECs [1] | Kd [2] [nM] | koff [2] [s⁻¹] | kon [2] [M⁻¹ s⁻¹] | Kd [3] [nM] | koff [3] [s⁻¹] | kon [3] [M⁻¹ s⁻¹] | binding result [4] | binding result [5]
1 | E3 IgG (parental anti-Tie1 antibody E3, human IgG1) (antibody, V domains shown, also called E3 IgG1; parental E3) VH: EVQLLESGGGLVQPGGSLRLSCAASGFTFSMYGMVWVRQAPGKGLEWVSVISPSGGNTGYADSVKGRFTISRDNSKNTLYLQVNSLRAEDTAVYYCARAPRGYSYGYYYWGQGTLVTVSS VL: DIQMTQSPLSLSASVGDRVTITCRASQGIGHYLAWYQQKPGKVPKLLIYTASTLQSGVPSRFSGSGSGTDFTLTINSLQPEDVATYYCQQFNSYPHTFGQGTRLDIK | 10 ng/ml and 66 pM | 5.83 | 3.61e-05 | 6190 | 14.9 | 9.2e-05 | 6170 |  | 
2 | germlined E3 IgG (light chain framework regions germlined to DPK4; heavy chain as parental) (antibody, V domains shown, also called germlined E3 IgG1; germlined anti Tie1 E3-IgG) VH: EVQLLESGGGLVQPGGSLRLSCAASGFTFSMYGMVWVRQAPGKGLEWVSVISPSGGNTGYADSVKGRFTISRDNSKNTLYLQVNSLRAEDTAVYYCARAPRGYSYGYYYWGQGTLVTVSS VL: DIQMTQSPSSLSASVGDRVTITCRASQGIGHYLAWYQQKPGKVPKLLIYTASTLQSGVPSRFSGSGSGTDFTLTISSLQPEDVATYYCQQFNSYPHTFGQGTRLEIK | 10 ng/ml and 66 pM | 5.17 | 3.67e-05 | 7090 | 15 | 8.99e-05 | 6000 |  | 
3 | P-B3 IgG (anti-Tie1 isolate p-B3, human IgG1) (antibody, V domains shown, the VL entry stops within FR4) VH: EVQLLESGGGLVQPGGSLRLSCAASGFTFSRYGMHWVRQAPGKGLEWVSVISPSGGMTYYADSVKGRFTISRDNTKNTLYLQMNSLRAEDTAVYYCARVGATGPFDIWGQGTMVTVSS VL: DIQMTQSPATLSLSPGERATLSCRASQSVSTYLAWYQQKPGQAPRLLIYDASNRATGIPGRFSGSGSGTDFTLTISSLEAEDFAVYYCQQRSSWPITFGQG |  |  |  |  |  |  |  | binds | binds
